Source: IntAct's records for PubMed 10409743

B1: Cell cycle serine/threonine-protein kinase hsk1 (Schizosaccharomyces pombe (strain ATCC 38366 / 972)), P50582 (parent)
chain: MAEAHITLSPKVTHEQQTDIDSECEITEVDDENVNENKSQEMIQDIPARDREEIENITRTFVELQENYRLIEKIGEGTFSSVYKAEDLHYGRYINDWDIQSEVLKESSFGKEKIPVNEDSRKPKYVAIKKIYATSSPARIYNELEILYLLRGSSVIAPLITALRNEDQVLVVLPYYEHTDFRQYYSTFSYRDMSIYFRCLFQAMQQTQTLGIIHRDIKPSNFLFDVRTKHGVLVDFGLAERYDGRQQSHSCRCTNSNAAELAHDFSIAQETSLGYIKNDTRPSKRANRAGTRGFRAPEVLFKCSSQSPKVDIWSAGVILLSFLTKRFPMFNSKDDVDALMEIACIFGKSEMRQCAALHGCTFETNVSTLTEKRVNFRKLILWASCGSASIYKEKLRHKPSQEERLCLDFLEKCLELDCNKRISAEEALDHDFLYLDNLAYEKKDDDTAFDNSFGETSFEKDEDLTAKHLSHILDFKEQEETDEPTSLSKRKRSIDEILPNDALQDGA
partner: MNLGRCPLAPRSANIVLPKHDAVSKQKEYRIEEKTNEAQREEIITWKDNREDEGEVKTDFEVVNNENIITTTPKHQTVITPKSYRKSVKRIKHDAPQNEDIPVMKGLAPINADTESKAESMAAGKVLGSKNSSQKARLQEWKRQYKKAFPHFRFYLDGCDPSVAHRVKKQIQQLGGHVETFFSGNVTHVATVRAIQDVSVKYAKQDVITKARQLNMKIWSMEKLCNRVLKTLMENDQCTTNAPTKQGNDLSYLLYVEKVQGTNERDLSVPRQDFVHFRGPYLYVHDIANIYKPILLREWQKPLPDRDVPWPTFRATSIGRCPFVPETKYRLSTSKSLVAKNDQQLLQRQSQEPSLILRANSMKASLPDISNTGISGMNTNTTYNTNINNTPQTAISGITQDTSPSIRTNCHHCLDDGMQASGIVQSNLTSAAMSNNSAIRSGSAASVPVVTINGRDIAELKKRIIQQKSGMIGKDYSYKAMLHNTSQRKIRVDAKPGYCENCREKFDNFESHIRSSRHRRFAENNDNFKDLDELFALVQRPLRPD

Variants of: B1
Conditions: with him1_schpo him1, O59836

| Variant | effect of a mutation on the interaction |
| --- | --- |
| K129A;K130S | with no effect |
